Here are results for six molecules from patent US20180021429A1, “ANTICANCER AGENTS OR ANTIMETASTATIC AGENTS USING FSTL1 AND COMBINATION DRUG THEREOF” (PHARMA FOODS INTERNATIONAL CO., LTD., priority 2015, published 2018).

Assay [1] deals with induction of mesenchymal stem cells (MSCs) by FSTL1. Briefly: Inhibitory activity against MSC induction, ALCAM-/PDGFRA-positive cells (Example 4). In kind it is cell-based. The following applies: mouse bone marrow cells; FSTL1 50 ng/mL; antibody 10 μg/mL; 11 days; vs control antibody. The procedure:
It is known that when bone marrow cells are stimulated with FSTL1, mesenchymal stem cells (MSCs) having pluripotency or self-proliferative capacity grow (Cancer Research 73: 6185, 2013). Thus, 2×10^7 cells/well of bone marrow cells collected from the thigh bone of a C57BL/6 mouse were suspended in 3 mL/well of RPMI1640 (GIBCO/Thermo Fisher Scientific Inc., Cat. No. C11875500BT) medium containing 2% fetal bovine serum, supplemented with 50 ng/mL (final concentration) of FSTL1 (R&D Systems, Inc. Cat#1694-FN-050) and 10 μg/mL of the anti-FSTL1 antibody (#5-2, #5-3, #5-8, #5-10, #5-43, #6-55, or #7-34) or its isotype mouse IgG (anti-DNP antibody) as a control antibody “Control”, and cultured under stimulation (6-well plate). 11 days thereafter, the number of cells was counted while the cells were stained with a PE-labeled anti-ALCAM antibody
(eBioscience, Cat. No. 12-1661-82) and a PE-labeled anti-PDGFRA antibody (eBioscience, Cat#12-1401-81) in order to examine the expression of MSC markers, and the contents of ALCAM-positive cells and PDGFR-positive cells were analyzed by flow cytometry using FACScan (Becton, Dickinson and Company, Code. BECTON-DICKINSON-FACSCAN) to calculate the number of each positive cell per culture.
It is known that when bone marrow cells are stimulated with FSTL1, mesenchymal stem cells (MSCs) having pluripotency or self-proliferative capacity grow (Cancer Research 73: 6185, 2013). […] 11 days thereafter, the number of cells was counted while the cells were stained with a PE-labeled anti-ALCAM antibody (eBioscience, Cat. No. 12-1661-82) and a PE-labeled anti-PDGFRA antibody (eBioscience, Cat#12-1401-81) in order to examine the expression of MSC markers, and the contents of ALCAM-positive cells and PDGFR-positive cells were analyzed by flow cytometry using FACScan (Becton, Dickinson and Company, Code. BECTON-DICKINSON-FACSCAN) to calculate the number of each positive cell per culture.

A further assay addresses T1, mouse FSTL1 (Mus musculus, UniProt Q62356).
T1 construct: AAA linker + 10xHis (C); made in house; host or cells: Expi293 (transient expression; purified from culture supernatant on HisPur Cobalt Resin)
T1 sequence (Q62356 with tags, fused parts or gaps): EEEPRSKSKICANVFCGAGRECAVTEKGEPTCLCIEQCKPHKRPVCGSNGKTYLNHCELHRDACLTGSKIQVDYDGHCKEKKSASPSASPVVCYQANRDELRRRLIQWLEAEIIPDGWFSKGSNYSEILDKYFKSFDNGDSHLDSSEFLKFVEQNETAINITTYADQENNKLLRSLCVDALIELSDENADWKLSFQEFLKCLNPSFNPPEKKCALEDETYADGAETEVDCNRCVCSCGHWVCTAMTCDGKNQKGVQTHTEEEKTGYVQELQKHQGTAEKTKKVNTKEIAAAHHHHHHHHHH
Briefly: ELISA binding activity of purified antibody against mouse FSTL1. The procedure: The reactivity of the obtained antibody clones described above with FSTL1 was evaluated by ELISA under the following conditions.
(Table 2 ELISA Conditions for Binding Activity Evaluation of Purified Antibody)
Antibodies used: anti-dinitrophenyl (DNP) antibody (negative control), #5-2, #5-3, #5-8, #5-10, #5-43, #6-55, and #7-34
FIGS. 96 and 97 show results of evaluating binding activity under the condition of Table 3 as to clones differing in screening and antibody purification timings.
(Table 3 ELISA Conditions for Binding Activity Evaluation of Purified Antibody)
(In general: An ELISA detects its analyte on a solid surface through an enzyme-linked reagent.)

Where [2] appears, read: ELISA Table 3 conditions, FIG. 97B.

B1: #5-43: chicken-mouse chimeric anti-FSTL1 antibody clone; variable regions SEQ ID NO: 779 (light), 781 (heavy) (antibody, V domains shown)
VH: AVTLDESGGGLQTPGGGLSLVCKGSGFTFSSFNMFWVRQAPGKGLEWVAGIGKDGGTGYGAAVDGRATISKDSGQSTLRLQLNNLRAEDTGTYYCAKAAGGCSYDWCGAYTGDIDTWGHGTEVIVSS
VL: ASTQPSSVSANPGEAVKITCSGGSGSYYGWYQQKSPGSAPVTVIYNNNQRPSDIPSRFSGSKSGSTATLTITGVQAEDEAVYFCGGYDSSTGHGGIFGAGTTLTVL
modifications: mouse constant regions
As for B1, the “inhibitory activity against the expansion of ALCAM-positive cells and PDGFRA-positive cells by FSTL1” value (from here on “inhibitory activity”) in assay [1] is “slightly strong tendency of inhibitory activity”.

B2: #8-4: chicken-mouse chimeric anti-FSTL1 antibody clone; variable regions SEQ ID NO: 795 (light), 797 (heavy) (antibody, V domains shown)
VH: AVTLDESGGGLQTPGGGLSLVCKGSGFTLSSFNMFWVRQAPGKGLEWVAGVGKDGGTAYGAAVDGRATISRDSGQSTVRLQLNNLRAEDTGTYFCAKAAGGCSYSWCGAYVGDLDAWGHGTEVIVSS
VL: ASSQPSSVSANPGETVKITCSGGSGYYYGWYQQKSPGSAPVTVIYNNDNKPSDIPSRFSGSKSGSTGTLTITGVQVEDEAVYFCGGYDNSGTGIFGAGTTLTVL
modifications: mouse constant regions
As for B2, in the assay with mouse FSTL1 (setting [2]), the “binding activity against mouse FSTL1” value is on record as “no binding activity”.

B3: #5-8: chicken-mouse chimeric anti-FSTL1 antibody clone; variable regions SEQ ID NO: 771 (light), 773 (heavy) (antibody, V domains shown)
VH: AVTLDESGGGLQTPGGGLSLVCKGSGFTFSSFNMFWVRQAPGKGLEWVAGIGKDGVPKYGTAVDGRATISKDNGQSTMRLQLNNLRAEDTGTYFCAKAAGGCSYDWCGIYTGDIDTWGHGTEVIVSS
VL: ASTQPSSVSANPGEAVKITCSGGSGSYYGWYQQKSPGSAPVTVIYNNNQRPSDIPSRFSGSKSGSTATLTITGVQAEDEAVYFCGGYDSSTGHGGIFGAGTTLTVL
modifications: mouse constant regions
As to B3, the “binding activity against mouse FSTL1” value with mouse FSTL1 (setting [2]) is “no binding activity”.

B4: #8-1: chicken-mouse chimeric anti-FSTL1 antibody clone; variable regions SEQ ID NO: 791 (light), 793 (heavy) (antibody, V domains shown)
VH: AVTLDESGGGLQTPGGALSLVCKGSGFTFSSFNMFWVRQAPGKGLEWVAGIGKDGVPKYGAAVDGRATISKDNGQSTMRLQLNNLRAEDTGTYFCAKAAGGCSYDWCGIYAGDIDTWGHGTEVIVSS
VL: ASTQPSSVSANPGEAVKITCSGGSGSYYGWYQQKSPGSAPVTVIYNNNQRPSDIPSRFSGSKSGSTATLTITGVQAEDEAVYFCGGYDSSSGHGGIFGAGTTLTVL
modifications: mouse constant regions
Consider B4, for which the “binding activity against mouse FSTL1” value with mouse FSTL1 (setting [2]) is “very slightly exhibited binding activity”.

B5: #6-55: chicken-mouse chimeric anti-FSTL1 antibody clone; variable regions SEQ ID NO: 783 (light), 785 (heavy) (antibody, V domains shown)
VH: AVTLDESGGGLQTPGGALSLVCKGSGFTFTSVTMQWVRQAPGKGLEWVASVCSGSSTYYAPAVKGRATISRDNGQSTVRLQLSNLRPEDTGTYYCAKIAGRARWSCTSAAYNIDAWGHGTEVIVSS
VL: ASTQPSSVSAIPGETVKITCSGGGNNYGWYQQRSPGSAPVTVIYYNDNRPSNIPSRFSGSTSGSTSTLTITGVQADDEAIYYCGSWDSNTDSGIFGAGTTLTVL
modifications: mouse constant regions
As to B5, the “inhibitory activity” value in assay [1] is on record as “slightly strong tendency of inhibitory activity”. Also, the “binding activity against mouse FSTL1” value with mouse FSTL1 (ELISA, FIG. 95B) was “specific and equivalently strong binding activity”.

B6: #7-34: chicken-mouse chimeric anti-FSTL1 antibody clone; variable regions SEQ ID NO: 787 (light), 789 (heavy) (antibody, V domains shown)
VH: AVTLDESGGGLQTPGGGLSLVCKASGFTFSSVTMQWVRQAPGKGLEWVASICSGSSTYYGPAVKGRATISRDNGQNTVRLQLNNLRAEDTATYYCAKIVGRGRWSCTSAAYNIDAWGHGTEVIVSS
VL: ASTQPSSVSANPGETVKITCSGGGNNYGWYQQKSPGSAPVTVIYYNNNRPSNIPSRFSGSTSGSTSTLTITGVQAEDEAVYYCGSYEGSTDSGIFGAGTTLTVL
modifications: mouse constant regions
Consider B6, for which the “inhibitory activity” value in assay [1] is reported as “slightly strong tendency of inhibitory activity”.
